± gives the uncertainty stated by the source.
Assay: amyloid nucleation score (Sup35N fusion, yeast selection) (log enrichment); library NNK3; higher = more nucleation; inactive = no reads after selection
In short: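 Growth for 7 days at 30°C on medium lacking adenine and uracil followed a 24-hour induction with 100 μM copper sulfate of psi-negative yeast expressing peptides of 20 random codons fused to Sup35N. Input and output plasmid inserts were sequenced with Illumina, and sequences with under 100 input reads were excluded. Nucleation score is the DiMSum log enrichment of output over input reads, centred on the mode score of non-aggregating sequences.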

Substance | amyloid nucleation score
DLGYVLLMTHSRIMMCLHHY | inactive
DLILWFPL | inactive
DLLDHGFEASSKDLEFRDHS | inactive
DLNDGWGWKRLTFQSVRCGE | inactive
DLNMGYKFLISKYSWPVYPM | inactive
DLPKVHGKFFYSLPMVVNTN | -0.162 ± 0.98
DLQLRNWCLWVSWWN | inactive
DLSSSGCKLSRIFHGHNWSR | inactive
DLWDTCCLII | inactive
DMCIHWDEGNAWWYKSMASV | inactive
DMGKKSSLGNKWVIREAHMG | inactive
DMIESSKRFFGSARIVLPEM | inactive
DMIKCGLSPDRVFIWYWPNK | inactive
DMISFKMLQYCWCSSCVFSH | 2.18 ± 0.088
DMLAYADMLHNFFNSSVHFW | inactive
DMNSACCVWHSVFYSEFYVI | 2.19 ± 0.069
DMTGGVCHFWSCCVSCNK | 2.96 ± 0.072
DMWYRYYMSLGSCKRGSVWK | inactive
DNFVEDFLTMASGNIRC | inactive
DNLGLFSVVKRSPMLSVTKE | inactive
DNQVICISCYGLIGLKGGRQ | 1.5 ± 0.11
DNRYVY | inactive
DPLILPIVVDRIVADDCYCQ | inactive

Substance | amyloid nucleation score
DPPHWVDFSRFR | inactive
DPTIVIGDQPIRLRPSVCQM | inactive
DPVMTACNALMTSVS | -0.319 ± 1.3
DQECRA | inactive
DQGDRSFCSNLRLGYGVRAW | inactive
DQGHRNYINSPRNFLSDKSC | inactive
DRHSTYCLAS | inactive
DRHVSQFSVWDW | inactive
DRKNCRRSHVWVMRMGNWYC | inactive
DRLPGANICKRRFDMCERKV | inactive
DRNLDVPCLDVLRSMLDVCN | -0.464 ± 0.96
DRVITSNFFSSVWTQT | inactive
DRYFLVDAKMFTGRTYLILG | -0.416 ± 0.88
DRYLCVVKCSVVTGIDQMSM | inactive
DSFNCDFNMCHDYVM | inactive
DSIAVCGRITPSLNLQFDMQ | inactive
DSKGIFYFFGLVSLY | inactive
DSKMLCCCCWPVRN | 1.42 ± 0.12
DSLIVCTVPHGLDVVSTRRV | inactive
DSLKIR | inactive
DSLSDLLYSFKFKG | inactive
DSLTDVMTWELWDIYHVKHE | inactive
DSPRGV | inactive

Substance | amyloid nucleation score
DSTEVRYQNPMTTLRGVVFW | inactive
DTFACCPRWNLCGENTLPYI | 2.33 ± 0.06
DTGLAESQGMN | inactive
DTLLRKFWVIIVIGTALGSM | inactive
DTWRMFWPLVVLNCADGAPG | inactive
DVFHSCLAQFILYTP | inactive
DVGTCSLLNGHKYFFRFNVV | inactive
DVMSEFLFKYWVVNQQCFTR | inactive
DVSYYERGSSVHYTHSD | inactive
DWRAVLLGITSFA | inactive
DWTGNMGDNHSTRVFRRKRD | inactive
DWYIVRMARCG | 0.984 ± 0.12
DYIEGLECVFRDPARIFLWG | -0.226 ± 1.1
DYNILQSRMSYRAYMCSLHV | inactive
DYTPGGCRPTTNCLS | inactive
DYYTVCQAWIYIGFAILKW | inactive
EAEGNINTRGTHRCLYGSFK | inactive
EAYEAQD | inactive
ECATTVGNAFRRSGVQVFAM | inactive
ECEWDMVH | inactive
ECHRGDHINDYVRADNRFSL | inactive
ECPAALLKKIVPYKKLHGRM | inactive
EDHFSLHACVSSGTLSKVVY | inactive

Substance | amyloid nucleation score
EDIGGCECRYSIKDVY | inactive
EDLMLVQF | inactive
EDYLFHLLRDPRRTGWLIWF | inactive
EEMVSDRVRMLVTINHR | 0.661 ± 0.27
EEVAGSTYIISSVVVYSRAG | 1.57 ± 0.14
EFLESMNFVVTFLRWIQWTN | inactive
EFMILDLCMG | inactive
EFNNFYFCFFTV | 2.71 ± 0.064
EFQNISWYTKLEGEYCGEMV | inactive
EGILPYLRYLFRNLSVGCCW | inactive
EGTKEF | inactive
EGTRLTSYM | inactive
EHGMVENRQRRFCLDWWDGM | inactive
EHVWHRCTKVN | inactive
EIFVFTM | inactive
EIGYYFNFKRLGAS | inactive
EIIFLS | inactive
EIRKQHCCHS | inactive
EIRMRMIKRFVYD | 1.16 ± 0.17
EIVYCPWLQSWRA | inactive
EKDISAAMRMHGR | -0.315 ± 0.9
EKECRTWHHVDGSLVESCYY | inactive
ELDCELMIALFLLWIVHANG | -0.657 ± 0.93

Substance | amyloid nucleation score
ELIAIRRSNFHKKFLLNLYC | inactive
ELISGLLRVGLDLKKAVSFD | inactive
ELISRMSFRSLCLAFFISVC | inactive
ELLWNLRGNFDIDLGSFIRT | inactive
ELNIN | inactive
ELNRDDCEGSSATPQRDFNV | inactive
ELNTFKSTQIHWGIGDSSQE | 0.34 ± 0.31
ELRQMTRVSVLASYTWSTTL | -0.014 ± 0.46
ELRSIR | inactive
ELVCVA | inactive
ELYVMLGDGAFVRAIKDYVS | inactive
EMCSA | inactive
EMSAMRCILLMRVDPICSLS | inactive
ENLLISKRCINGMA | inactive
ENLLNMFWMFPLWYLGFNLG | inactive
ENTCYRVGALIAAFTSFKLW | inactive
ENTTMVGHMGYSLMFSYK | 1.25 ± 0.12
ENVPLNAAYCSL | inactive
EPNRVLMKVQYRNSPCYTRR | inactive
EPVFCMWLDMGLGPNDCRMA | inactive
EQLISTSPLCVFIGFLVVLY | inactive
ERFLIPSDLNYKYA | inactive
ERFNPDEVCE | inactive

Substance | amyloid nucleation score
ERFRGMDRHVGVVWYDFV | inactive
ERLSMLVPYISDRYWLSDVN | inactive
ESFPEFVEVGICR | inactive
ESRMDRCCPSFGMCSLRYQK | inactive
ESRVPRSIKDSL | inactive
ESTYVDGRNTVNDYCPNSTI | inactive
ESYINLDIHNYIKTIILSLA | inactive
ETGMLCSGYCKGVCARDDPG | inactive
ETRFWNLIHADYIRMIGAGF | inactive
ETYKITLRTCLLATAGLREF | inactive
EVCFIRLLLLYCR | inactive
EVCNVVTCGNLFKVTIYNSQ | 2.43 ± 0.068
EVVITLANAEGPAEQEF | inactive
EVVPCCF | inactive
EWLGNCRNDCVMWLCYNMAS | inactive
EWSLKIVTMNMASWM | inactive
EYADTEKVASNVLFFSRLAG | inactive
EYENLYLRVQFSYMLLFLVM | -1.33 ± 1.8
EYGSATVVWNHYFSPWVRFF | -0.213 ± 0.9
EYNPTYYFYRTFMAFFLKMI | inactive
EYRGKIDVYYLIGQNYSVSC | 0.621 ± 0.27
EYSFSLWSVSPAYTHITYGG | -0.192 ± 0.71
FAAAFDRGQGKS | inactive

Substance | amyloid nucleation score
FADVGTEFSCQEVNMKTHPS | inactive
FAEYISQ | 0.293 ± 0.23
FAICSYANAEVSWKDGESAY | inactive
FASIRSRTRDRVSYVTPSFL | inactive
FASTVCEIPSFPWTKPRIMV | inactive
FASVFVMN | inactive
FAYLF | inactive
FAYLFPCMLLPRSLFAFRIN | inactive
FCCLEWNFIFNTSGHVSNNV | 3.31 ± 0.079
FCDNQWRHKPTRVTIFFE | inactive
FCFSGRMTYHFTTWFIKRRS | inactive
FCGKLSCCFIRLAELFLVGK | inactive
FCIQSVFCCT | 2.88 ± 0.071
FCMMKRSFCPDLNKLATDLV | inactive
FCPPADGRVTGTCDLFLTNS | inactive
FCSPSFYFGADGDTT | 1.99 ± 0.058
FCVIMSM | inactive
FCYSDLNYRWICYSRDVESS | inactive
FDDVGSNSLHCIMMHELLGV | inactive
FDDYLKSYFKQYSNDHVG | inactive
